# Experiments:
# [1] = biological target: Type I gelatin (heat-denatured acid-soluble type I atelocollagen from bovine hides) (bovine); assay: ELISA
# [2] = biological target: V-(GXY)26 (Streptococcus pyogenes); assay: MST; NanoTemper Monolith NT.115, Protein Labeling Kit RED-NHS; 50 mM HEPES pH 7.5, 150 mM NaCl, 10 mM CaCl2, 10 µM ZnCl2, 0.05% Tween-20, 3 mM NaN3; without ß-mercaptoethanol (nonreducing) (Fig. 5F)
# [3] = biological target: V-(GXY)26 (Streptococcus pyogenes); assay: MST; NanoTemper Monolith NT.115, Protein Labeling Kit RED-NHS; 50 mM HEPES pH 7.5, 150 mM NaCl, 10 mM CaCl2, 10 µM ZnCl2, 0.05% Tween-20, 3 mM NaN3; with 1 mM ß-mercaptoethanol (reducing) (Fig. 5F)
# [4] = biological target: Acid-soluble type I atelocollagen from bovine hides (bovine) (UniProt P02453); assay: ELISA
# Acid-soluble type I atelocollagen from bovine hides (bovine), sequence (P02453 162-1217, chain 1 of 2): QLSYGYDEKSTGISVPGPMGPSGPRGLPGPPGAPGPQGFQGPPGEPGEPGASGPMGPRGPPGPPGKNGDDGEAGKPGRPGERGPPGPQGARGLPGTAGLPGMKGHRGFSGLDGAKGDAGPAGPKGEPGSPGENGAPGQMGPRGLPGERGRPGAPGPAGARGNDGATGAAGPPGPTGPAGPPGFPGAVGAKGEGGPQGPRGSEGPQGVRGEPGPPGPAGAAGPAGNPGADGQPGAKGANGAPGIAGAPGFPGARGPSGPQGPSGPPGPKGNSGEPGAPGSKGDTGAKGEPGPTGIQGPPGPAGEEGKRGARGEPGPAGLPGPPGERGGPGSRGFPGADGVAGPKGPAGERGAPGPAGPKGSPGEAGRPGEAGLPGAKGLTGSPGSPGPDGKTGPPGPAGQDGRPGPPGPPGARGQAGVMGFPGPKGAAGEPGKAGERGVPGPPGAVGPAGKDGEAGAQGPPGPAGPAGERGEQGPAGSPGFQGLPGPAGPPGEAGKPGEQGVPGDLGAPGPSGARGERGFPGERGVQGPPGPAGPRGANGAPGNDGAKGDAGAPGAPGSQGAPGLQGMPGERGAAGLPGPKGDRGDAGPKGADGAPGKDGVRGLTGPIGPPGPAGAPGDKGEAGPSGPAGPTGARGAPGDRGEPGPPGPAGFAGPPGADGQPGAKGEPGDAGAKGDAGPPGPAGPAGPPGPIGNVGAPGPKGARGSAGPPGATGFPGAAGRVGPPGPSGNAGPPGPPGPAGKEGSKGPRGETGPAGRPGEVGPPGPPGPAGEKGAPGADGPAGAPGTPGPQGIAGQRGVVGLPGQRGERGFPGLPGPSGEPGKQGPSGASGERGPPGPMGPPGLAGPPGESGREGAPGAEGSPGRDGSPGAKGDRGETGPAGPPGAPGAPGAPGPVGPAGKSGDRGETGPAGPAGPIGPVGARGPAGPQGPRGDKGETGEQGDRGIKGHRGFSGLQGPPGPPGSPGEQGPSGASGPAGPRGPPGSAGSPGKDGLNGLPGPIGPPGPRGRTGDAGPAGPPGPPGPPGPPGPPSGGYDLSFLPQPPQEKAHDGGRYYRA
# Acid-soluble type I atelocollagen from bovine hides (bovine), sequence (P02465 80-1117, chain 2 of 2, further chain): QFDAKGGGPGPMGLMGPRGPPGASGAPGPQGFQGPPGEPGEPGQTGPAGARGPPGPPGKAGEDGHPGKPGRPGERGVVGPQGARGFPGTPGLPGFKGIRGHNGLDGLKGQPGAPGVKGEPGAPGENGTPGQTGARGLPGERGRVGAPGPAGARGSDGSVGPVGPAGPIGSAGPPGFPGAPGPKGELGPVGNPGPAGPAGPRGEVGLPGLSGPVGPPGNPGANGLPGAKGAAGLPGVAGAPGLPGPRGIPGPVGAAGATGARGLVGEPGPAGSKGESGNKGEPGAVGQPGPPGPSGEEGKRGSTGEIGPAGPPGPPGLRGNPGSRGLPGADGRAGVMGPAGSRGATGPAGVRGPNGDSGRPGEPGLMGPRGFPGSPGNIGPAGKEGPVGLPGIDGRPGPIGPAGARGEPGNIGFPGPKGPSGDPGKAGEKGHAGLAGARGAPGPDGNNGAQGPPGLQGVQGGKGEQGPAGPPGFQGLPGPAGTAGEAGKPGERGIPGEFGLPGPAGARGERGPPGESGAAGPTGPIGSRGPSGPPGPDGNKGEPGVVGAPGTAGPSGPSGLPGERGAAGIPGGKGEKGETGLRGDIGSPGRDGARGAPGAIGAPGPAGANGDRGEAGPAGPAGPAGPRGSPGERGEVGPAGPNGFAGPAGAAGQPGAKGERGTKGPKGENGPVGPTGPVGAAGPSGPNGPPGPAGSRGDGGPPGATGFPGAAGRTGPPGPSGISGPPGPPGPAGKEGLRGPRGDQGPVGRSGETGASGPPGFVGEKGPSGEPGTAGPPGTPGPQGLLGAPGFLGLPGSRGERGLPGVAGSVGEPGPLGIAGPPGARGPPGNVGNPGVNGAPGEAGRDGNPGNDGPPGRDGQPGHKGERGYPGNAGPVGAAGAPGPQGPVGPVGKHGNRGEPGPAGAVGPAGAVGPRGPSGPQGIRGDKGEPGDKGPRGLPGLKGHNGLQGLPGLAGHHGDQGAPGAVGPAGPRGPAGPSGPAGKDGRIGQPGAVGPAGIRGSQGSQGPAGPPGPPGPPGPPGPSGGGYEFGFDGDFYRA
# [5] = biological target: type I gelatin (heat-denatured acid-soluble type I atelocollagen from bovine hides) (bovine) (UniProt P02453); assay: ELISA
# type I gelatin (heat-denatured acid-soluble type I atelocollagen from bovine hides) (bovine), sequence (P02453 23-1217, chain 1 of 2): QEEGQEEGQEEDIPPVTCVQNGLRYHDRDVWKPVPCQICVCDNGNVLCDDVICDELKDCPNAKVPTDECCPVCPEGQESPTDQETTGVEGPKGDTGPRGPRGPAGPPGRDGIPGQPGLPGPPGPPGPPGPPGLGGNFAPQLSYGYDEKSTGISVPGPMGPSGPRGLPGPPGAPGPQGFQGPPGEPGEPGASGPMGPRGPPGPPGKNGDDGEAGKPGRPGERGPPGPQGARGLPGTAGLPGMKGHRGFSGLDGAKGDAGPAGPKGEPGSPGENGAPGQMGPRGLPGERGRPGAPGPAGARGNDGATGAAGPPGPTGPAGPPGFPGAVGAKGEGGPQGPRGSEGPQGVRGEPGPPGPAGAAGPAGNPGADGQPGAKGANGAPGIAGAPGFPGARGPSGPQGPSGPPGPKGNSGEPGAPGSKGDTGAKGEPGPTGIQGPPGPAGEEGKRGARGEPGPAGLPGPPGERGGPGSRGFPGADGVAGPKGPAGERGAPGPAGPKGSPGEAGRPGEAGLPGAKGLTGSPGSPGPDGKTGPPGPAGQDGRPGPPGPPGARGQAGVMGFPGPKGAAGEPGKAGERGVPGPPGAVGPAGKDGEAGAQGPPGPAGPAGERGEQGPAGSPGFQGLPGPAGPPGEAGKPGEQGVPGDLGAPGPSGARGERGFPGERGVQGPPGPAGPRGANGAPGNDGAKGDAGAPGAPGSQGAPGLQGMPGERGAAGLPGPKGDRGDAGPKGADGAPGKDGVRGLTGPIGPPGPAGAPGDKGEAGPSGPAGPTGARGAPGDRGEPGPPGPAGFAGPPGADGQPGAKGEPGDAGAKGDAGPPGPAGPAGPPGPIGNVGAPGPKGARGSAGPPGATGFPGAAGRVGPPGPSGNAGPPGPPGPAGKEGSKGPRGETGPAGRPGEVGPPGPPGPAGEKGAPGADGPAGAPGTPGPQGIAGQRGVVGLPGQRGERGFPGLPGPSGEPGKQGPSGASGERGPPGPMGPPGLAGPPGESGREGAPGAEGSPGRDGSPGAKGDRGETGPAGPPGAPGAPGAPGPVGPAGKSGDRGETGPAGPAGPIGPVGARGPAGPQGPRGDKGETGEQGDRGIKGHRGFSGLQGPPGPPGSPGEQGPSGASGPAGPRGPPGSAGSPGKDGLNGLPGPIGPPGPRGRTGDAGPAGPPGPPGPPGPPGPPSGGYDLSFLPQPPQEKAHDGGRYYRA
# type I gelatin (heat-denatured acid-soluble type I atelocollagen from bovine hides) (bovine), sequence (P02465 80-1117, chain 2 of 2, further chain): as the sequence (P02465 80-1117, chain 2 of 2, further chain) above
# [6] = biological target: Acid-soluble type I atelocollagen from bovine hides (bovine) (UniProt P02453); assay: ELISA; indirect ELISA; soluble collagen immobilised, ColQ1-CU G472V variants in solution; 25 °C to preserve the triple-helical fold (Fig. 4C)
# [7] = biological target: Type I gelatin (heat-denatured acid-soluble type I atelocollagen from bovine hides) (bovine); assay: ELISA; indirect ELISA; gelatin immobilised, ColQ1-CU G472V variants in solution; 37 °C (Fig. 4B)
# [8] = biological target: Type I gelatin (heat-denatured acid-soluble type I atelocollagen from bovine hides); assay: indirect ELISA; details: 37 °C; parent: est. 1.5 µM; read off a plot
# [9] = biological target: V-domain of Scl2.3 (Streptococcus pyogenes); assay: SDS-PAGE (SDS-stable oligomer); 12% nonreducing SDS-PAGE of 10 µM V-(GXY)26 incubated with or without ColG-CU at 25 °C (Fig. 2C)
# [10] = biological target: Acid-soluble type I atelocollagen from bovine hides (bovine, UniProt P02453 162-1217; P02465 80-1117); assay: ELISA; details: both partners purified
# Acid-soluble type I atelocollagen from bovine hides, sequence (P02453 162-1217, chain 1 of 2): as the sequence (P02453 162-1217, chain 1 of 2) above
# Acid-soluble type I atelocollagen from bovine hides, sequence (P02465 80-1117, chain 2 of 2): as the sequence (P02465 80-1117, chain 2 of 2, further chain) above
# [11] = biological target: T1, soluble type I collagen (acid-soluble type I atelocollagen from bovine hides) (bovine, UniProt P02453 162-1217; P02465 80-1117); assay: ELISA; details: both partners purified
# T1 construct: also called soluble collagen; tropocollagen
# T1 sequence (P02453 162-1217, chain 1 of 2): as the sequence (P02453 162-1217, chain 1 of 2) above
# T1 sequence (P02465 80-1117, chain 2 of 2): as the sequence (P02465 80-1117, chain 2 of 2, further chain) above
molecule,measurement,setting,value
ColG-AD (Y119-S392) (from UniProt Q9X721 119-392) (domain or fragment),Kd,[1],0.11 µM
ColG-CBD2 (N1004-K1118) (from UniProt Q9X721 1004-1118) (domain or fragment),Kd,[1],253 µM
"ColG-CU CL4-G494V, crosslinked (domain or fragment)",Kd,[2],36 µM
"ColG-CU CL4-G494V, noncrosslinked (reduced) (domain or fragment)",Kd,[3],2.9 µM
ColG-CU E524A (Y119-G790) (domain or fragment),Kd,[1],0.08 µM
same,Kd,[4],0.37 µM
ColG-FL E524A (Y119-K1118) (from UniProt Q9X721 119-1118) (enzyme),Kd,[1],0.031 µM
same,Kd,[4],0.024 µM
ColG-PD E524A (D398-G790) (domain or fragment),Kd,[1],243 µM
same,Kd,[4],497 µM
ColG-PKD (I799-N880) (from UniProt Q9X721 799-880) (domain or fragment),Kd,[5],> 1000 µM
ColQ1-CU G472V (domain or fragment),Kd,[6],1.6 µM
same,Kd,[7],1.6 µM
ColQ1-CU G472V E166A,Kd,[8],4.8 µM
ColQ1-CU G472V F123A,Kd,[8],1.5 µM
ColQ1-CU G472V F176A,Kd,[8],1.1 µM
ColQ1-CU G472V F176A (domain or fragment),fold increase in affinity against ColQ1-CU G472V,[6],20 fold
ColQ1-CU G472V N226A (domain or fragment),Kd,[6],> 150 µM
same,Kd,[7],> 150 µM
ColQ1-CU G472V R169A,Kd,[8],2.7 µM
ColQ1-CU G472V R169A (domain or fragment),fold increase in affinity against ColQ1-CU G472V,[6],9 fold
ColQ1-CU G472V Y173A (domain or fragment),fold drop in binding affinity against ColQ1-CU G472V,[7],15 fold
ColQ1-CU G472V Y270A (domain or fragment),fold increase in affinity against ColQ1-CU G472V,[6],8 fold
V-domain of Scl2.3 (domain or fragment),stoichiometry N,[9],3
"ColG-AD (Y119-S392) (domain or fragment, fluorescently labeled in the fibrillar collagen assay (dye not stated), source: E. coli Nico21 (DE3), purified) YDFEYLNGLSYTELTNLIKNIKWNQINGLFNYSTGSQKFFGDKNRVQAIINALQESGRTYTANDMKGIETFTEVLRAGFYLGYYNDGLSYLNDRNFQDKCIPAMIAIQKNPNFKLGTAVQDEVITSLGKLIGNASANAEVVNNCVPVLKQFRENLNQYAPDYVKGTAVNELIKGIEFDFSGAAYEKDVKTMPWYGKIDPFINELKALGLYGNITSATEWASDVGIYYLSKFGLYSTNRNDIVQSLEKAVDMYKYGKIAFVAMERITWDYDGIGS",Kd,[10],0.072 ± 0.009 µM
"ColG-PKD (I799-N880) (domain or fragment, source: E. coli Nico21 (DE3), purified) IAKVTGPSTGAVGRNIEFSGKDSKDEDGKIVSYDWDFGDGATSRGKNSVHAYKKAGTYNVTLKVTDDKGATATESFTIEIKN",Kd,[11],> 1000 µM
"ColG-CBD2 (N1004-K1118) (domain or fragment, fluorescently labeled in the fibrillar collagen assay (dye not stated), source: E. coli Nico21 (DE3), purified) NEKLKEKENNDSSDKATVIPNFNTTMQGSLLGDDSRDYYSFEVKEEGEVNIELDKKDEFGVTWTLHPESNINDRITYGQVDGNKVSNKVKLRPGKYYLLVYKYSGSGNYELRVNK",Kd,[10],14 ± 1 µM

# From PMC11032491, “A conserved strategy to attack collagen: The activator domain in bacterial collagenases unwinds triple-helical collagen” (Proceedings of the National Academy of Sciences of the …, 2024)
